Data as given in the supplement of paper PMC6757056.
± gives the standard deviation of the averaged measurements.

B1: library; a variant is named by its letters at N, in order (parent)
chain: GCUGUCACCGGUGUAUUACCCUAGUGGUCGACCGGUCUGAUGAGUCUNNNNNNAGACGAAACAGC

How the values were obtained:
hypoxanthine [1] = variants of: B1; test: FACS-Seq fitted mean relative fluorescence mCherry/BFP without ligand (log10 relative fluorescence); ligand: hypoxanthine (xanthine aptamer); higher = higher reporter protein expression; conditions: HEK293T, ligand present: no
Method in brief: (§1)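 Fluorescence is reported as a normalized fitted mean of sorted-bin read counts. Lentivirally transduced HEK293T libraries (mCherry ribozyme-switch reporter, EF1α-BFP marker) were enriched, treated with or without ligand for 48 h, and sorted into 6 mCherry/BFP bins for MiSeq sequencing of PCR-amplified genomic DNA. The normal fit was on log10(mCherry/BFP), scaled to five spiked-in control ribozymes.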

hypoxanthine [2] = variants of: B1; test: normalized RNA/DNA level with ligand (relative to sTRSVctl = 100) (log10 (% of sTRSVctl)); ligand: hypoxanthine (xanthine aptamer); higher = less ribozyme self-cleavage, higher mRNA level; conditions: ligand concentration (+) RNA-Seq: 5 mM, HEK293T, reporter: mCherry (pCS4076), ligand present: yes
Method in brief: (§2)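 RNA level was computed as RNA reads over DNA reads divided by a spiked-in non-cleaving sequence or by the top sequences, then scaled and log-transformed. Scaling was ×100 with log10, the top group was 25 sequences, and the threshold was ≥100 DNA reads. The reads came from HEK293T cells transfected at 4 µg per 6-well well with ribozyme switch library plasmids (mCherry, or eGFP in some ligand experiments). Total RNA was extracted with EDTA 72 h after transfection, with any ligand added 1 h before it.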

hypoxanthine [3] = variants of: B1; test: normalized RNA/DNA level without ligand (relative to sTRSVctl = 100) (log10 (% of sTRSVctl)); ligand: hypoxanthine (xanthine aptamer); higher = less ribozyme self-cleavage, higher mRNA level; conditions: HEK293T, reporter: mCherry (pCS4076), ligand present: no
Method in brief: as §2

hypoxanthine [4] = variants of: B1; test: FACS-Seq fitted mean relative fluorescence mCherry/BFP with ligand (log10 relative fluorescence); ligand: hypoxanthine (xanthine aptamer); ligand concentration (+) FACS-Seq: 5 mM; higher = higher reporter protein expression; conditions: HEK293T, ligand present: yes
Method in brief: as §1

| Variant | FACS-Seq fitted mean (log10) (hypoxanthine [1]) | normalized RNA/DNA level with ligand (log10) (hypoxanthine [2]) | normalized RNA/DNA level without ligand (log10) (hypoxanthine [3]) | FACS-Seq fitted mean (log10) (hypoxanthine [4]) |
| --- | --- | --- | --- | --- |
| GUCGGA | -0.358 ± 0.082 | 1.98 ± 0.055 | 1.79 ± 0.027 | -0.116 ± 0.049 |
| UUGAGG | 0.402 ± 0.054 | 1.98 ± 0.027 | 1.7199 ± 0.00097 | 0.578 ± 0.02 |
| UUGAGC | 0.0741 ± 0.098 | 1.977 ± 0.003 | 1.89 ± 0.025 | 0.129 ± 0.018 |
| UUGAGA | 0.452 ± 0.082 | 1.96 ± 0.015 | 1.53 ± 0.067 | 0.649 ± 0.057 |
| AUGAGA | 0.392 ± 0.088 | 1.85 ± 0.062 | 1.451 ± 0.0036 | 0.697 ± 0.0095 |
| AUGAGG | -0.0108 ± 0.028 | 1.644 ± 0.0044 | 1.15 ± 0.056 | 0.252 ± 0.059 |
| GUGAGC | 0.0785 ± 0.015 | 1.731 ± 0.017 | 1.15 ± 0.016 | 0.6585 ± 0.0046 |
| GUGAGA | -0.285 ± 0.036 | 1.86 ± 0.025 | 1.5664 ± 0.0011 | -0.146 ± 0.2 |
| GUGAGG | 0.174 ± 0.029 | 1.7 ± 0.039 | 1.2 ± 0.026 | 0.598 ± 0.051 |
| CUCCAU | -0.247 ± 0.08 | 1.96 ± 0.023 | 1.8932 ± 0.0013 | 0.134 ± 0.038 |
| GUCAAA | 0.456 ± 0.0096 | 1.91 ± 0.047 | 1.733 ± 0.0061 | 0.532 ± 0.0073 |
| GUCAAG | 0.65 ± 0.074 | 1.85 ± 0.077 | 1.46 ± 0.07 | 0.667 ± 0.011 |
| GUCAGA | -0.213 ± 0.0037 | 1.897 ± 0.0028 | 1.74 ± 0.042 | -0.0451 ± 0.017 |
| GUCAGC | 0.371 ± 0.0086 | 1.925 ± 0.011 | 1.79 ± 0.018 | 0.605 ± 0.059 |
| GUCAGG | 0.326 ± 0.071 | 1.858 ± 0.016 | 1.46 ± 0.042 | 0.67 ± 0.0068 |
| GUCAGU | 0.34 ± 0.024 | 1.94 ± 0.023 | 1.833 ± 0.0092 | 0.492 ± 0.11 |
| UUGCUU | 0.227 ± 0.004 | 1.98 ± 0.042 | 1.94 ± 0.044 | 0.0746 ± 0.042 |
| UUCCUG | -0.284 ± 0.019 | 1.93 ± 0.041 | 1.756 ± 0.0019 | -0.379 ± 0.12 |
| GUCUCG | 0.392 ± 0.059 | 1.94 ± 0.094 | 1.7 ± 0.022 | 0.575 ± 0.11 |
| GUCUCU | 0.359 ± 0.039 | 1.97 ± 0.039 | 1.98 ± 0.092 | 0.302 ± 0.052 |
| GUGAUG | 0.204 ± 0.049 | 1.81 ± 0.038 | 1.34 ± 0.019 | 0.686 ± 0.037 |
| AUGCCA | 0.0727 ± 0.02 | 1.91 ± 0.07 | 1.821 ± 0.018 | 0.158 ± 0.03 |
| UUCUAA | 0.391 ± 0.23 | 1.961 ± 0.018 | 1.85 ± 0.077 | -0.13 ± 0.28 |
| GUGAAG | 0.168 ± 0.0046 | 1.73 ± 0.0073 | 1.15 ± 0.072 | 0.591 ± 0.023 |

| Variant | FACS-Seq fitted mean (log10) (hypoxanthine [1]) | normalized RNA/DNA level with ligand (log10) (hypoxanthine [2]) | normalized RNA/DNA level without ligand (log10) (hypoxanthine [3]) | FACS-Seq fitted mean (log10) (hypoxanthine [4]) |
| --- | --- | --- | --- | --- |
| AUCGAG | 0.2633 ± 0.00067 | 1.793 ± 0.014 | 1.35 ± 0.044 | 0.4 ± 0.028 |
| AUCGAU | 0.371 ± 0.032 | 1.9 ± 0.025 | 1.669 ± 0.0035 | 0.284 ± 0.033 |
| AUCGAC | 0.449 ± 0.044 | 1.95 ± 0.063 | 1.81 ± 0.054 | 0.415 ± 0.12 |
| AUCCCG | 0.0616 ± 0.017 | 1.86 ± 0.04 | 1.51 ± 0.11 | 0.148 ± 0.14 |
| GUAUGG | 0.0518 ± 0.044 | 1.783 ± 0.01 | 1.331 ± 0.013 | 0.63 ± 0.026 |
| GUAUGU | 0.23 ± 0.082 | 1.899 ± 0.013 | 1.77 ± 0.017 | 0.398 ± 0.0075 |
| AUCCGA | 0.296 ± 0.067 | 1.92 ± 0.014 | 1.758 ± 0.012 | 0.5594 ± 0.0019 |
| AUCCGC | 0.3452 ± 0.0029 | 1.931 ± 0.011 | 1.8 ± 0.024 | 0.517 ± 0.049 |
| UUCUCG | 0.24 ± 0.0079 | 2.01 ± 0.034 | 1.854 ± 0.0077 | 0.362 ± 0.0084 |
| AUCUAA | 0.268 ± 0.023 | 1.905 ± 0.019 | 1.78 ± 0.022 | 0.411 ± 0.03 |
| CUCGAU | 0.5204 ± 0.0026 | 1.93 ± 0.017 | 1.83 ± 0.081 | 0.642 ± 0.061 |
| CUCGAA | 0.449 ± 0.073 | 1.92 ± 0.068 | 1.75 ± 0.037 | 0.395 ± 0.041 |
| CUAUUG | 0.179 ± 0.031 | 1.95 ± 0.048 | 1.843 ± 0.0087 | 0.763 ± 0.041 |
| CUAUUC | 0.8316 ± 0.0023 | 2 ± 0.02 | 1.84 ± 0.055 | 0.762 ± 0.023 |
| CUAUUA | 0.569 ± 0.023 | 1.942 ± 0.019 | 1.85 ± 0.054 | 0.484 ± 0.053 |
| UUCCAC | 0.451 ± 0.048 | 1.97 ± 0.077 | 1.88 ± 0.027 | 0.5314 ± 0.0026 |
| GUCGCA | 0.304 ± 0.021 | 1.94 ± 0.037 | 1.788 ± 0.0024 | 0.56 ± 0.0098 |
| UUCGGU | 0.323 ± 0.015 | 1.93 ± 0.044 | 1.78 ± 0.036 | 0.492 ± 0.007 |
| AUCCAG | 0.222 ± 0.062 | 1.92 ± 0.034 | 1.55 ± 0.096 | 0.446 ± 0.052 |
| AUCCAA | 0.618 ± 0.059 | 1.923 ± 0.016 | 1.79 ± 0.07 | 0.708 ± 0.06 |
| AUCCAU | 0.676 ± 0.075 | 1.96 ± 0.015 | 1.86 ± 0.032 | 0.6901 ± 0.0038 |
| AUGAAA | 0.631 ± 0.058 | 1.87 ± 0.021 | 1.7 ± 0.033 | 0.625 ± 0.011 |
| AUGAAU | 0.418 ± 0.023 | 1.907 ± 0.01 | 1.66 ± 0.027 | 0.644 ± 0.066 |
| AUGAAC | 0.618 ± 0.07 | 1.9 ± 0.025 | 1.73 ± 0.025 | 0.583 ± 0.02 |

| Variant | FACS-Seq fitted mean (log10) (hypoxanthine [1]) | normalized RNA/DNA level with ligand (log10) (hypoxanthine [2]) | normalized RNA/DNA level without ligand (log10) (hypoxanthine [3]) | FACS-Seq fitted mean (log10) (hypoxanthine [4]) |
| --- | --- | --- | --- | --- |
| AUGAAG | -0.113 ± 0.019 | 1.73 ± 0.031 | 1.13 ± 0.053 | 0.639 ± 0.0078 |
| GUGCUG | 0.44 ± 0.068 | 1.914 ± 0.019 | 1.58 ± 0.025 | 0.542 ± 0.054 |
| UUCGCA | 0.4682 ± 0.0031 | 1.95 ± 0.051 | 1.86 ± 0.067 | 0.512 ± 0.038 |
| UUCACA | 0.502 ± 0.065 | 1.9 ± 0.051 | 1.88 ± 0.05 | 0.58 ± 0.026 |
| UUAUUA | 0.289 ± 0.0048 | 1.96 ± 0.086 | 1.91 ± 0.062 | 0.398 ± 0.036 |
| GUGGCG | 0.283 ± 0.0056 | 1.94 ± 0.02 | 1.608 ± 0.011 | 0.342 ± 0.023 |
| AUGACG | 0.0397 ± 0.012 | 1.807 ± 0.0069 | 1.354 ± 0.011 | 0.3727 ± 0.0035 |
| AUGACA | 0.303 ± 0.11 | 1.909 ± 0.013 | 1.8 ± 0.021 | 0.344 ± 0.049 |
| GUGACU | -0.666 ± 0.018 | 1.92 ± 0.02 | 1.88 ± 0.049 | -0.229 ± 0.049 |
| GUGACG | 0.259 ± 0.081 | 1.828 ± 0.0026 | 1.37 ± 0.044 | 0.523 ± 0.031 |
| UUCAAG | 0.352 ± 0.023 | 1.907 ± 0.0058 | 1.72 ± 0.056 | 0.545 ± 0.024 |
| UUCAAA | 0.11 ± 0.051 | 1.95 ± 0.026 | 1.802 ± 0.0086 | 0.0695 ± 0.15 |
| UUCAAU | -0.589 ± 0.025 | 1.937 ± 0.015 | 1.81 ± 0.024 | -0.1336 ± 0.00015 |
| AUGCAA | 0.192 ± 0.045 | 1.87 ± 0.022 | 1.72 ± 0.038 | 0.221 ± 0.068 |
| AUGCAG | 0.251 ± 0.022 | 1.756 ± 0.01 | 1.29 ± 0.019 | 0.682 ± 0.039 |
| UUAUGG | 0.281 ± 0.094 | 1.89 ± 0.032 | 1.666 ± 0.015 | 0.317 ± 0.05 |
| UUCGAU | 0.164 ± 0.024 | 1.88 ± 0.019 | 1.767 ± 0.00052 | 0.303 ± 0.0063 |
| UUCGAA | 0.708 ± 0.021 | 1.938 ± 0.0037 | 1.7 ± 0.045 | 0.716 ± 0.059 |
| GUGCAC | 0.5159 ± 0.0044 | 1.87 ± 0.046 | 1.672 ± 0.0021 | 0.536 ± 0.016 |
| GUGCAG | 0.0446 ± 0.026 | 1.739 ± 0.0069 | 1.3 ± 0.099 | 0.427 ± 0.039 |
| GUGCAA | 0.274 ± 0.033 | 1.904 ± 0.0021 | 1.69 ± 0.037 | 0.57 ± 0.059 |
| GUGCAU | -0.413 ± 0.2 | 1.91 ± 0.038 | 1.74 ± 0.018 | -0.852 ± 0.077 |
| UUGAAG | 0.35 ± 0.06 | 1.93 ± 0.077 | 1.64 ± 0.059 | 0.6894 ± 0.0024 |
| UUGAAA | 0.426 ± 0.1 | 1.953 ± 0.0063 | 1.77 ± 0.044 | 0.614 ± 0.07 |
